{"source": "the nanobody polyreactivity screen of Harvey et al. (2022)", "assay": "yeast display, Sf9 membrane polyspecificity reagent, FACS + sequencing; frameworks hold sequencing errors", "in_short": "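Nanobodies from a synthetic yeast display library (Saccharomyces cerevisiae BJ5465), induced 36–48 hours with galactose, were stained 1 hour at 4 °C with 10% biotinylated, detergent-solubilized Sf9 membrane reagent, enriched on streptavidin microbeads, then FACS-sorted. Anti-HA (expression) and streptavidin (reagent binding) fluorescence set low and high (top ~1%) gates. Polyreactivity labels come from the gate of origin. Genes were colony-PCR amplified, MiSeq 2 × 250 sequenced and filtered by CDR length.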", "data": [{"sequence": "QVQLVESGGGLVQAGGSLRLSCAASGRIFYAYAMGWYRPAPGNERELVAAITISASSTYYADSVKGRFTISRDNAKNTVYLQMNSLKPEDTAVSYCAAAYRRPWWYSYRYGYWGQGTQVTVSS", "values": [{"measurement": "polyreactivity (PSR sort gate)", "value": "high polyreactivity"}]}, {"sequence": "QVQLVESGGGLVQAGGSLRLSCAASGFTFLNYAMGWYRQAPGKERELVAAITRSGGSTYYADSVKGRFTISRDTAKNTVYLQMNSLKPEDTAVYYCAIGYYSPNYYYWGQGTQVTVSS", "values": [{"measurement": "polyreactivity (PSR sort gate)", "value": "high polyreactivity"}]}, {"sequence": "QVQLVESGGGLVQAGGSLRLSCAASGRTFYPYAMGWYRQAPGKERELVASINWSGASTYYADSVKGRFTISRDNAKNTVYLQMNSLKPEDTAVYYCAAYITYLSSRFWYGYWGQGTQVTVSS", "values": [{"measurement": "polyreactivity (PSR sort gate)", "value": "high polyreactivity"}]}, {"sequence": "QVQLVESGGGLVQAGGSLRLSCAASGYTFIVNAIGWYRQAPGKERQLVAAISRSGSSTRSADSVKWRFTISRDNAKNTVYLLMNRLKPEDTSVYYCAADLYSSEGRYYFWGQGTQVTVSS", "values": [{"measurement": "polyreactivity (PSR sort gate)", "value": "high polyreactivity"}]}, {"sequence": "QVQLVESGGGLVQAGGSLRLSCAASGITLRRNAMGWYRQAPGKERELVARISTTGGSTYYADSVKGRFTISRDNAKNTVYLQMNSLKPEDTAVYYCAARAPLGFWHYDYWGQGTQVTVSS", "values": [{"measurement": "polyreactivity (PSR sort gate)", "value": "high polyreactivity"}]}, {"sequence": "QVQLVESGGGLVQAGGSLRLSCAASGSTFSRYAMGWSRQAPGKERELVAAISWSGGSTYYAVSVKGRFTISRDNAKNTVYLQMISLKPEDTAVYYCAAYTYSFRANHDYWGQGTQVTVSS", "values": [{"measurement": "polyreactivity (PSR sort gate)", "value": "high polyreactivity"}]}, {"sequence": "QVQLVESGGGLVQAGGSLRLSCAASGRIFYSIAMGWYRQAPGKERELVAAISRSGVRTYYADSVKGRFTISRDNAKNTVYLQMNSLKPEDTAVYYCAAVIYGTTPQDEYDYWGQGTQVTVSS", "values": [{"measurement": "polyreactivity (PSR sort gate)", "value": "low polyreactivity"}]}, {"sequence": "QVQLVESGGGLVQAGGSLRLSCAASGSLFRYYVMGWYRQAPGKERELVAAISSRGGSTYYADSVKGRFTISRDNAKNSVYLLMNSLKPEDTAFYYCAARFGGWDRGLDYWGQGTLVTVSS", "values": [{"measurement": "polyreactivity (PSR sort gate)", "value": "high polyreactivity"}]}, {"sequence": "QVQLVESGGGLVQAGGTLRLSCAASGRTYYPNTMGWYRQAPGKERELVATITRSGGNTYADSVKGRFTISRDNAKNTVYFQMTSLKPEDTAVYYCAARNGRIAWMNYWGQGTQVTVSS", "values": [{"measurement": "polyreactivity (PSR sort gate)", "value": "low polyreactivity"}]}, {"sequence": "QVQLVESGGGLVQAGGSLRLSCAASGSIFTRYAMGWYRQAPGKERELVATISKRSGSTYYADSVKGRFTISRDNAKNTVYLQMISLKPEDTAVYYCAARNSGRVKYGYWGQGSQVTVSS", "values": [{"measurement": "polyreactivity (PSR sort gate)", "value": "high polyreactivity"}]}, {"sequence": "QVHLVESGGGLDQAGGSLRLSSAASGFTFQKYAMGWYRQAPGTERELVAAISSSGGRTYYADSLNGRFTISRDNAKITVYLQMNSLKPEDTAVYYCAVRGSYRGWYDYWGQGTQVTVSS", "values": [{"measurement": "polyreactivity (PSR sort gate)", "value": "high polyreactivity"}]}, {"sequence": "QVQLVESGGGLVQAGGSLRLSCAASGRTFGEYAMGWYRQAPGKERELVADITNGSRTYYADSVKGRFTISRDNAKNTVYLQMNSLKPEDTAVYYCAADWWKEVDYWGQGTQVTVSS", "values": [{"measurement": "polyreactivity (PSR sort gate)", "value": "low polyreactivity"}]}, {"sequence": "QVQHVESGGGLVQAGGSLRLSCAASGRIFTYYTMGWYRQAPGKERELVAAISWSGGRTYYADSVKGRFTISRDNAKNTVYLQMNSLKPEDTAVYYCARLQDSRESPWRGYYWGQGTQVTVSS", "values": [{"measurement": "polyreactivity (PSR sort gate)", "value": "high polyreactivity"}]}, {"sequence": "QVQLVESGGGLVQAGGSLRLSCAASGIIFRKYAMGRYRQAPGKERELVAAISSSGGSTYYADSVKGRFTISRDNAKNTVYLQMNSLKPEDTAVYYCAAERQVTNKIFNYWGQGTQVTVSS", "values": [{"measurement": "polyreactivity (PSR sort gate)", "value": "high polyreactivity"}]}, {"sequence": "QVQLVESGGGLVQAGGSLRLSCAASGSTFYINAMGWYRQAPGKERELVAAISWSTTITYYADSVKGRFTISRDNAKNTVYLQMNSLKPEDTAVYYCAAEEEYWDYSGGGYWGQGTQVTVSS", "values": [{"measurement": "polyreactivity (PSR sort gate)", "value": "high polyreactivity"}]}, {"sequence": "QDQLVESGGGLVQAGGSLRLSCAASGRTFTSNAMGRYRQAPGKERELVAAINFRGDSTYYADSVKGRFTISRDNAKNTVYLQMNSLKPEDSAVYYCAAVGGRSSYRLDYWGQGTQVTVSA", "values": [{"measurement": "polyreactivity (PSR sort gate)", "value": "low polyreactivity"}]}, {"sequence": "QVQLVESGPGLVQAGGSLRLSCAASGRIFTANAMGWYRQAPGKERELVAAITTSDGTYYADSVKGRFTISRDNAKNTVYLQMYSLKPEVTAVYYCATDTATYPPAMDDWGQGTQVTVSS", "values": [{"measurement": "polyreactivity (PSR sort gate)", "value": "low polyreactivity"}]}, {"sequence": "QVQLVESGGGLVQAGGSLRLSCAASGRTFRPYAMGWYRQAPGKERELVAAISSRGSSTYYADSVKGRFTISRDNAKNTVYLQMNSLKPEDTAVYYCAARSYWGGLRYDYWGQGTQVTVSS", "values": [{"measurement": "polyreactivity (PSR sort gate)", "value": "high polyreactivity"}]}, {"sequence": "QVQLVESGGGLVQAGGSLRLSCADSGRIFGSNAMGWYRQAPGKERELVAAISWRGASTYYADSVKGRFTISRDNAKNTVYLQMNSLKPEDTAVYYCATRGQTRTTTRYYSWGQGTQVTVSS", "values": [{"measurement": "polyreactivity (PSR sort gate)", "value": "high polyreactivity"}]}, {"sequence": "QVQLVESGGGLVQAGGSLRLSCAASGFIFSVYAMGGYRQAPGKDTELVAVISTSGGRTYYADSVKGRFTISRDNAKNTVYLQMNSLKPEDTAVYYCAADGFQYTLGNYYWGQGTQVTVSS", "values": [{"measurement": "polyreactivity (PSR sort gate)", "value": "high polyreactivity"}]}, {"sequence": "QVQLVESGGGLVQAGGSLRLSCAASGRTFVVYAMGWYRQAPGKERELVAAISRGGSRTYYADSVKGRFTISRDNAKNTVYLQMNSLKPEDTAVYYCAKVIPAYPDSDYNYWGQGTQVTVSS", "values": [{"measurement": "polyreactivity (PSR sort gate)", "value": "high polyreactivity"}]}, {"sequence": "QVQLVESGGGLVQAGGSLRLTCAASGRIAWYRQAPGKERELVAAITSGDRTNYADSVKRRFTISRDNAKNTVYFQMNSLKPEDTAVYYCATEPSWYHGFIDPRGYWGQGTQVTVSS", "values": [{"measurement": "polyreactivity (PSR sort gate)", "value": "low polyreactivity"}]}, {"sequence": "QVQLVESGGGLVQAGGSLRLSCAASGRIFSSYVMGLYRQAPGKERELVAAIRWSGGSTYYADSVKGRFTISRDNAKNTVYLQMNSLKPEDTAVYYCAAEVYRYYATGYGYWGQGTQVTVSS", "values": [{"measurement": "polyreactivity (PSR sort gate)", "value": "high polyreactivity"}]}, {"sequence": "QVQLVESGGGLVQAGGSLRLSCAASGSIFTQYAMGWYRQAPGKERELVAAISWTGGRTNYADSVKGRFTISRDTAKNTFYLQMNSLKPEDTSVYYCAATYLLRYCQGWKRMDYWGQGTQVTVSS", "values": [{"measurement": "polyreactivity (PSR sort gate)", "value": "high polyreactivity"}]}, {"sequence": "QVQLVESGRGLVQAGGSLRLSCAASGRTFNWYAKGWYRQAPGKERELVAAISSGGSTYYADSVKGRFTISRDNAKNTVYLQMNSLKPEDTAVYYCAAVTPSGAHRSAYHPISDYWGQGTQVTVSS", "values": [{"measurement": "polyreactivity (PSR sort gate)", "value": "low polyreactivity"}]}, {"sequence": "QVQLVESGGGLVQAGGSLRLSCAASGITFSYYAMGWYRQAPGKERELVAAINGGGSRTYYADSVKGRFTISRDNAKNTVYLQMNSLKPEDTAVYYCAAYSGQARGYDYWGQGTQVTVSS", "values": [{"measurement": "polyreactivity (PSR sort gate)", "value": "high polyreactivity"}]}, {"sequence": "QVQLVESGGGLVQAGGSLRLSCAASGRTFTFNAMGWYRQAPGKETELVAAISTSGGSTYYADSVKGRFTISRDNAKNTVYLQMNSLKPEDTAVYYCNTYPYYRAGGSDYWGQGTQVTVSS", "values": [{"measurement": "polyreactivity (PSR sort gate)", "value": "high polyreactivity"}]}, {"sequence": "QVQLVESGGGLVQAGGSLRLSCAASGLTFNYYAMGWYRQPPGKESELVAAITSSGGRTYYADSVKGRFTISRDNAKNTGYLQMNSLKPEDTAVYYCNTVSYRLGAVWFSYDYWGQGTQVTVSS", "values": [{"measurement": "polyreactivity (PSR sort gate)", "value": "high polyreactivity"}]}, {"sequence": "QVQLVESGGGLVQAGGSLRLSCAASGRTFSRYAMGWYRPAPGKERELVAAISWRGSSTYYADSVKGRFTISRDNAKNTVYLQMNSLKPEYTAVYYCNTVTYPYVPALFDYWGQGTQVTVSS", "values": [{"measurement": "polyreactivity (PSR sort gate)", "value": "high polyreactivity"}]}, {"sequence": "QVQLVESGGGLVQAGGSLRISCAASGRIFGTNAMGWYRQAPGKERELVADITSGGSTNYADSVKGRFTISRDNAKNTVYLQMNSLKPEDTAVYYCAAVVIGDLRWYRDEYWGQGTQVTVSS", "values": [{"measurement": "polyreactivity (PSR sort gate)", "value": "low polyreactivity"}]}, {"sequence": "QVQLVESGGGLVQAGGSLRLSCAASGRIFGDNGMGWYRQAPGKERELVTYADSVKGRFTISRDNAKNTVYLQLNSLQPEDTAVYYCYSPFGGKYDYWGQGTQVTVSS", "values": [{"measurement": "polyreactivity (PSR sort gate)", "value": "low polyreactivity"}]}, {"sequence": "QVQLVESGGGLVQAGGSLRLSCAASGSIFGFNAMGWYRQAPGTERELVAAITWSGVSTYYADSVKGRFTISRDNAKNTVYLQMNSLKPEDTAVYYCAADVIIDWWYEMDYWGQGTQVTVSS", "values": [{"measurement": "polyreactivity (PSR sort gate)", "value": "high polyreactivity"}]}]}
